Target: Monoclonal antibody L9 (human IgG)
Assay: KinExA (kinetic exclusion assay); equilibrium in solution; antigen serially diluted into a constant concentration of antibody (human IgG as constant binding partner); equilibrated 24 h; room temperature (about 25 °C); 1x HBS-EP+ pH 7.4 with BSA at 1 mg/mL; antigen cross-linked to beads as capturing reagent; n-curve analysis

Sequence of Monoclonal antibody L9 (human IgG) (heavy, as listed by the source, chain 1 of 2): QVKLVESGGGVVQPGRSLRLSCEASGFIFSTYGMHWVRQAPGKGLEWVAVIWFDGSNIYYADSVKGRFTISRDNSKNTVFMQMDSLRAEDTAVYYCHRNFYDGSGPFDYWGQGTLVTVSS
Sequence of Monoclonal antibody L9 (human IgG) (light, as listed by the source, chain 2 of 2): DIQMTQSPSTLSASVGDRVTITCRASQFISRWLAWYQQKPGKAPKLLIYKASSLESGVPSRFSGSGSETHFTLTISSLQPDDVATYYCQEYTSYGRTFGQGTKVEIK

Binder | Kd [nM]
NANPNVDPNANPNVDP (modifications not checked) [double-NPNV peptide] | 4.56
NANPNVDPNANPNVDPNANPNVDP (modifications not checked) [triple-NPNV peptide] | 0.059

Source: article PMC13079917
